This note sets out measurements from paper doi:10.1101/2020.02.21.960245 (bioRxiv, 2020).

Read-outs that look alike come from different tables or passages of the source.

To fix the notation:
T1: untagged Rec114 (S. cerevisiae, UniProt P32841 1-428)
T1 sequence: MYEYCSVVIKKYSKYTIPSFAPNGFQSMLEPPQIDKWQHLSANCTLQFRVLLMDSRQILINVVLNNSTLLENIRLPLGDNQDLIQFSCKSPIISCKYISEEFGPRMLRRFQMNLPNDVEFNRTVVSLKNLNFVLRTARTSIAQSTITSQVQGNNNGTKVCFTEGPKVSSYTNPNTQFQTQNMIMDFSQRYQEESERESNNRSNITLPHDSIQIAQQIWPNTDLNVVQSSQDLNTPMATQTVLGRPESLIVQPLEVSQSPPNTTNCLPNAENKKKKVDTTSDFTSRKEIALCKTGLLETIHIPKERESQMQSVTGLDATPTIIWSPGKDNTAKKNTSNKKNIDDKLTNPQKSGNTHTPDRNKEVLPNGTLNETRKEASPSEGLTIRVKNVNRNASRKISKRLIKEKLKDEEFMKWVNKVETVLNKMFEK

T2: Rec114(375-428) (S. cerevisiae, UniProt P32841 375-428)
T2 sequence: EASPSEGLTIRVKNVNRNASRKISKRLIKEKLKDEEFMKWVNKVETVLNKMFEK

B1: HisFlagRec114 (natural protein)
chain: T1 sequence
B2: MBPMei4 (natural protein)
chain: MSRGKLEDMEQKETSEVDWIICFALIQSRNPTLWKRALSRKKGDVEDVGALKSEKNLKINPRENSKHIYKWVAPFENGFLNNKSLFAHLEPIYNFLCQNKYKSFEDAVGLKELQSFSKDVSTADINNWFLPRYKILLKILSLKTKEIDFRGLSQVFQTLQILLVSHYSHRIDSDSSFKRTLIDVHVFNFIAKFLFNRILLKKNQNDPKWLQNFYDQGDGKHLCDKVDYKRLCSLHFTLIYSIINIQLIKIKTNQTFEPQILKYVSVLKLIEHILIIIESLIHVLIRFVSKHKLICINRKKAYCRVYLERELSLKKTYLKNFYSVISGVPEKELGGLLKILKIVILSLLETFESIEWQHLKPFLEKFPAHEISLQKKRKYIQAALLITAERNLIARFRLSRWFNETENI
B3: untagged Mei4 (natural protein)
chain: B2 chain
B4: untagged Mer2 (natural protein)
chain: MVARGRTDEISTDVSEANSEHSLMITETSSPFRSIFSHSGKVANAGALEESDKQILEWAGKLELESMELRENSDKLIKVLNENSKTLCKSLNKFNQLLEQDAATNGNVKTLIKDLASQIENQLDKVSTAMLSKGDEKKTKSDSSYRQVLVEEISRYNSKITRHVTNKQHETEKSMRCTQEMLFNVGSQLEDVHKVLLSLSKDMHSLQTRQTALEMAFREKADHAYDRPDVSLNGTTLLHDMDEAHDKQRKKSVPPPRMMVTRSMKRRRSSSPTLSTSQNHNSEDNDDASHRLKRAARTIIPWEELRPDTLESEL
B5: untagged wild-type Rec114(325-428) (domain or fragment)
chain: PGKDNTAKKNTSNKKNIDDKLTNPQKSGNTHTPDRNKEVLPNGTLNETRKEASPSEGLTIRVKNVNRNASRKISKRLIKEKLKDEEFMKWVNKVETVLNKMFEK
B6: coiled-coil domain of Mer2 (residues 77-227) (domain or fragment)
chain: IKVLNENSKTLCKSLNKFNQLLEQDAATNGNVKTLIKDLASQIENQLDKVSTAMLSKGDEKKTKSDSSYRQVLVEEISRYNSKITRHVTNKQHETEKSMRCTQEMLFNVGSQLEDVHKVLLSLSKDMHSLQTRQTALEMAFREKADHAYDR
B7: Mei4(1-43) (domain or fragment)
chain: MSRGKLEDMEQKETSEVDWIICFALIQSRNPTLWKRALSRKKG

Data set [1] deals with the molecule itself. The data set is described as follows: cross-linking.
Data set [2] has as its target B1. The data set is described as follows: SEC-MALS.
In data set [3] the target is T1, untagged Rec114. The data set is described as follows: SEC-MALS.
Data set [4] deals with the molecule itself. The data set is described as follows: SEC-MALS.
Data set [5] deals with the molecule itself. Put plainly: SEC-MALS. This is another data set of the same source.
Data set [6] has as its target T2, Rec114(375-428). The data set is described as follows: SEC-MALS.

For B1, in data set [1], the binding result was “binds”. Consider B2, for which the “stoichiometry N” value in data set [2] was found to be 2 Rec114 per Mei4.

Regarding B3, the “stoichiometry N” value in data set [3] was found to be 2 Rec114 per Mei4. Regarding B4, the “stoichiometry N” value in data set [4] was determined as 4. As to B5, in data set [5], the “stoichiometry N” value is 2. B6: in data set [5], the “stoichiometry N” value turned out to be 4.

For B7, the “stoichiometry N” value in data set [6] turned out to be 2 Rec114 per Mei4.
